The target in assay [1] is biotinylated Monomer MHC (HLA-A* 02:01 SLC45A2 (Biolegend, Custom Product, … (SEQ ID NO: 2)) (human)). In words: flow cytometry of stained beads, calibrated; divided by the bead surface area. (In flow cytometry, cells or beads pass a laser one at a time.)
The target is the same in assay [2]. Nature of the assay: flow cytometry of stained beads, calibrated; divided by the nominal bead surface area.
The target of assay [3] is costimulation antibodies on the antigen presenting beads (biotinylated anti-CD28 and biotinylated anti-CD2). Nature of the assay: flow cytometry of stained beads, calibrated; divided by the bead surface area.
The target is the same in assay [4]. In words: flow cytometry of stained beads, calibrated; divided by the nominal bead surface area.
The target is the same in assay [5]. Nature of the assay: flow cytometry of stained beads, APC intensity calibrated with Quantum Simply Cellular beads; assumes 1 detection antibody per costimulation antibody.
Assay [6] addresses Biotinylated peptide-Human Leukocyte Antigen complexes (pMHC). Nature of the assay: flow cytometry of stained beads, APC MFI calibrated with Quantum Simply Cellular beads; silica bead.
The target is the same in assay [7]. In words: flow cytometry of stained beads, APC MFI calibrated with Quantum Simply Cellular beads; polymeric bead.

For the substance “APC-conjugated anti-HLA-A (Biolegend, Catalog Number 343308) (antibody)”, the pMHC Density (molecules/sq micron) is 14800 in assay [1] and 19800 in assay [2].
Regarding “APC-conjugated monoclonal anti-Mouse-IgG1 (Biolegend, Catalog Number 406610) (antibody)”, the Costimulation Antibody Density (molecules/sq micron) amounted to 15600 in assay [3] and 17300 in assay [4]. Besides, the results for the Costimulation antibodies/bead (anti-Mouse IgG1 antibodies bound per bead) (antibodies/bead) in assay [5] (M-280 convoluted polymer beads) and in assay [5] (substantially spherical silica beads) were 427000 and 845000, respectively.
On to “anti-HLA-A conjugated to APC (Clone BB7.2, Biolegend) (antibody)”, for which, in assay [6], the Ligands/Bead (detection antibodies bound per bead) turned out to be 604000 Ligands/Bead and the Ligands/sq um (Ligands/sq um) was 12000. Moreover, in assay [7], the Ligands/Bead (detection antibodies bound per bead) was 487000 Ligands/Bead and the Ligands/sq um (Ligands/sq um) came to 19800.

Source of the values: US20250051417A1.
